Results on five molecules are retold here after doi:10.1101/225821 (bioRxiv, 2017).

Series [1] deals with Fc-tagged SALM3 LRR-Ig-Fn (mouse) (UniProt Q80XU8). The experiment in a line: SPR.
The series “SEC-MALS” concerns the molecule itself. Put plainly: SEC-MALS.
The target in series [2] is RPTPσ Ig1-3meB_(33-331) (mouse) (UniProt B0V2N1). The experiment in a line: SEC-MALS.

Molecule “PTPσ Ig1-3_(33-327) (from UniProt B0V2N1 33-327) (domain or fragment)” registered a fold lower affinity than for RPTPσ-meB in series [1] of 10 fold.

B1: SALM3 LRR-Ig-Fn_(17-510) (domain or fragment, mouse, UniProt Q80XU8 17-510, looked up)
chain: CPLPCVCQNLSESLSTLCAHRGLLFVPPNVDRRTVELRLADNFIQALGPPDFRNMTGLVDLTLSRNAITRIGARSFGDLESLRSLHLDGNRLVELGSSSLRGPVNLQHLILSGNQLGRIAPGAFDDFLDSLEDLDVSYNNLRQVPWAGIGSMPALHTLNLDHNLIDALPPGVFAQLSQLSRLDLTSNRLATLAPDPLFSRGRDAEASPSPLVLSFSGNPLHCNCELLWLRRLARPDDLETCASPPTLAGRYFWAVPEGEFSCEPPLIARHTQRLWVLEGQRATLRCRALGDPVPTMHWVGPDDRLVGNSSRAWAFPNGTLEIGVTGAGDAGAYTCIATNPAGEATARVELRVLALPHGGNTSAEGGRPGPSDIAASARTAAEGEGTLESEPAVQVTEVTATSGLVSWGLGRPADPVWMFQIQYNSSEDETLIYRIVPASSHHFLLKHLVPGADYDLCLLALSPAAGPSDLTATRLLGCAHFSTLPATPLCHALQ
B1: in the series “SEC-MALS”, the “stoichiometry N” value was found to be 2.

B2: SALM1 LRR-Ig-Fn_(20-518) (domain or fragment, mouse, UniProt Q80TG9 20-518, looked up)
chain: ACPKYCVCQNLSESLGTLCPSKGLLFVPPDIDRRTVELRLGGNFIIHIGRQDFANMTGLVDLTLSRNTISHIQPFSFLDLESLRSLHLDSNRLPSLGEDTLRGLVNLQHLIVNNNQLGGIADDAFEDFLLTLEDLDLSYNNLHGLPWDSVRRMVNLHQLSLDHNLLDHIAEGTFADLQKLARLDLTSNRLQKLPPDPIFARSQASLLTATPFAPPLSFSFGGNPLHCNCELLWLRRLERDDDLETCGSPGSLKGRYFWHIREEEFVCEPPLITQHTHKLLVLEGQAATLKCKAIGDPSPLIHWVAPDDRLVGNSSRTAVYDNGTLDILITTSQDSGPFTCIAANAAGEATATVEVSIVQLPHLSNSTSRMAPPKSRLSDITGSSKTSRGGGGSGAGEPPKSTPERAVLVSDVTTTSALVKWSVSKSAPRVKMYQLQYNCSDDEVLIYRMIPASNKAFVVNNLVSGTGYDLCVLAMWDDTATTLTATNIVGCAQFFTKAD
On to B2, for which, in “SEC-MALS”, the “stoichiometry N” value was 2.

B3: SALM3 LRR-Ig_(17-367) (domain or fragment, mouse, UniProt Q80XU8 17-367, looked up)
chain: CPLPCVCQNLSESLSTLCAHRGLLFVPPNVDRRTVELRLADNFIQALGPPDFRNMTGLVDLTLSRNAITRIGARSFGDLESLRSLHLDGNRLVELGSSSLRGPVNLQHLILSGNQLGRIAPGAFDDFLDSLEDLDVSYNNLRQVPWAGIGSMPALHTLNLDHNLIDALPPGVFAQLSQLSRLDLTSNRLATLAPDPLFSRGRDAEASPSPLVLSFSGNPLHCNCELLWLRRLARPDDLETCASPPTLAGRYFWAVPEGEFSCEPPLIARHTQRLWVLEGQRATLRCRALGDPVPTMHWVGPDDRLVGNSSRAWAFPNGTLEIGVTGAGDAGAYTCIATNPAGEATARVELR
For B3, the “stoichiometry N” value in the series “SEC-MALS” is 2. Moreover, the stoichiometry N (SALM3 per RPTPσ (2:1)) in series [2] came out at 2.

B4: SALM5 LRR-Ig_(18-376) (domain or fragment, mouse, UniProt Q8BXA0 18-376, looked up)
chain: QICPKRCVCQILSPNLATLCAKKGLLFVPPNIDRRTVELRLADNFVTNIKRKDFANMTSLVDLTLSRNTISFITPHAFADLRNLRALHLNSNRLTKITNDMFSGLSNLHHLILNNNQLTLISSTAFDDVFALEELDLSYNNLETIPWDAVEKMVSLHTLSLDHNMIDNIPKGTFSHLHKMTRLDVTSNKLQKLPPDPLFQRAQVLATSGIISPSTFALSFGGNPLHCNCELLWLRRLSREDDLETCASPALLTGRYFWSIPEEEFLCEPPLITRHTHEMRVLEGQRATLRCKARGDPEPAIHWISPEGKLISNATRSLVYDNGTLDILITTVKDTGAFTCIASNPAGEATQTVDLHIIK
B4: the “stoichiometry N” value in the series “SEC-MALS” came out at 2.
